Experimental data published in paper PMC5449587 (Nucleic Acids Research, 2017).

Target: the molecule itself
Test: crystal structure

B1: Burkholderia thailandensis deoxyribonuclease II (enzyme)
chain: MAISPRDEQNRSVDLWFAYKVPKLTKDADSDSASGYEYVYYDRQVGAVQKSPNLMNDPKGALFYTLDSVFGDPGDTTGWILYNDEMPADANRSNNATLGHTKGVIAFDIASSSALWLLHSWPKYASPSVPGVPTPLYGQTFLCLSLDLATAGKLAAQMALHQQPQVYLPRTGGLDHTSPLYALTQPLNASAPGDSDSLDFKTRGGVPFKVIAKNRKWGKDFWNDLVGPTLKADMYVETWIRGKIPPVLDSDGVHKTYDIKFIDLRKLGAPWAWPETQDHAKWGITTTDNWVCVGDINRMVTQEKRGGGTIAFQDPKLWKALCETDLIIPPPGKTDAQARAMIRKTHEPAE
Q: Does B1 bind?
A: Result: binds
